Measurements: the nanobody polyreactivity screen of Harvey et al. (2022)

Experiment: yeast display, Sf9 membrane polyspecificity reagent, FACS + sequencing; frameworks hold sequencing errors
Method in brief: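 Nanobodies from a synthetic yeast display library (Saccharomyces cerevisiae BJ5465), induced 36–48 hours with galactose, were stained 1 hour at 4 °C with 10% biotinylated, detergent-solubilized Sf9 membrane reagent, enriched on streptavidin microbeads, then FACS-sorted. Anti-HA (expression) and streptavidin (reagent binding) fluorescence set low and high (top ~1%) gates. Polyreactivity labels come from the gate of origin. Genes were colony-PCR amplified, MiSeq 2 × 250 sequenced and filtered by CDR length.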

Sequence | polyreactivity (PSR sort gate)
QVQLVESGGGLVQAGGSLRLSCAASGFIFRPYAMGWYRQAPGKERELVATIRWGASSTHYADSVKGRFTISRDNAKNTVYLQMNSLKPEDTAVYDCNADGWYGAVYWWFYGFDYWGQGTQVTVSS | low polyreactivity
QVQLVESGGGLVQAGGSLRLSCAASGFIFRQYAMGWYIQAPGKERELVAAITWSGTRTYYADSVKGRFTISRDNAKNTVYLQMNSLKPEDTAVYYCNAGYPKYGYDYWGQGTQVTVSS | high polyreactivity
QVQLVESGGGLVQAGGSLRLSCAASGFIFRQYAMGWYRQAPGKERELVAAISTGGGRTYYADSVKGRFTISRDNAKNTVYLQMNSLKPEDTAVYYCAVYYYKTYDYWGQGTQVTVSS | high polyreactivity
QVQLVESGGGLVQAGGSLRLSCAASGFIFRRYAMGWYRQAPGKERELVAAITRSGGSTYYADSVKGRFTISRDNAMNTVYLQMNSLKPEDTAVYYCNARYARVVPRYYYWGQGTQVTVSS | high polyreactivity
QVQLVESGGGLVQAGGSLRLSCAASGFIFRRYTMGWYRQAPGKERELVATITRSVNTDYADSVKGRFTISRDNAKNTVYLHMNSLKPEDTAVYYCAARKYFYFPVAYDYWGQGTQVTVSS | high polyreactivity
QVQLVESGGGLVQAGGSLRLSCAASGFIFRSNAMGWYRQAPGKEREFVAAISSRGGSTTYADSVKGRFTISRDNAKNSVYLQMNSLKPEDTAVYYCARDWYYYPQYRQRYYYWGQGTQVTVSS | high polyreactivity
QVQLVESGGGLVQAGGSLRLSCAASGFIFRSNAMGWYRQAPGKERELVAAISGRGCSTYYADSVKGRFTISRDNAKNTVYLQMNSLKPVDTAVYYCAKSTVWVLYGYWGQGTQVTVSS | high polyreactivity
QVQLVESGGGLVQAGGSLRLSCAASGFIFRSNAMGWYRQAPWKEREFVAAITYSSGSTYYRNSVKGRFTISRDNAKNTVYLQMNSLKPEDTAVYYCATPVTNGFDYWGQGTQVTVSS | high polyreactivity
QVQLVESGGGLVQAGGSLRLSCAASGFIFRSYAMGWYRQAPGKERELVAAISRSGGSTYYADSVKGRFTISRDNAKNTVYLQMNSLKPEDTAVYYCATDGGRSTARGYGHWGQGTQVTVSS | high polyreactivity
QVQLVESGGGLVQAGGSLRLSCAASGFIFRSYAMGWYRQAPGKERELVAVISRRGVNTHYADSVKGRFTISRDNAKNTVYLQMNSLKPEDTAVYYCAKGLTALGDYWGQGTQVTVSS | high polyreactivity
QVQLVESGGGLVQAGGSLRLSCAASGFIFRTYAMGWYRQAPGKERELVAAITYSAGSTYYADSVKGRFTISRDNAKNTVYLQMNSLKPEDTAVYYCNVRKTWYGYSVTGRYDYWGQGTQVTVSS | low polyreactivity
QVQLVESGGGLVQAGGSLRLSCAASGFIFRWNAMGWYRQSPGKERELVATISNGGSTYYADSVKGRFTISRDNAKNSVYLQMNSLKPEDTAVYYCAADYWYFSISITDYDYWGQGTQVTVSS | high polyreactivity
QVQLVESGGGLVQAGGSLRLSCAASGFIFRWYAMGWYRQAPGKERELVAAISRSGDSTYYADSVKGRFTISRDNAKNTVYLQKNSLKPEDTAVYYCAADDRYYTYGYDYWGQGTQVTVSS | low polyreactivity
QVQLVESGGGLVQAGGSLRLSCAASGFIFRWYAMGWYRQAPGKERELVAAISSSSGSTYYADSVKGRFTISRDNAKNTVYLQMNSLKPEDTAVYYCAAESNRRFEGEYWGQGTQVTVSS | high polyreactivity
QVQLVESGGGLVQAGGSLRLSCAASGFIFRWYAMGWYRQAPGKERELVAGISASGGSTYYADSVKGRFTISRDNAKNTVYLQMNSLKPEDTAVYYCAAYRRNSRWELDYWGQGTQVTVSS | high polyreactivity
QVQLVESGGGLVQAGGSLRLSCAASGFIFRYNTMGWYRQAPGKERELVATINRSGGSTYYADSVKGRFTISRDNAKNTVYLQMNSLKPEDTAVYYCAARSGTRWRSGYYYWGQGTHVTVSS | high polyreactivity
QVQLVESGGGLVQAGGSLRLSCAASGFIFRYYALGWYRQAPGKERELVAAIDYSGGSTNYADSVKGRFTISRDNAKNTVYLQMNSLKPEDNAVYYCNAEYTWHRGYDYWGQGTQVTVSS | low polyreactivity
QVQLVESGGGLVQAGGSLRLSCAASGFIFRYYAMGWYIQAPGKERELVATITRSGGSTYYADSVKGRFTLSRDNAKNTVYLQMNSLKPEDTAVYYCAADIYWYRGYGYWGQRTQVTVSS | high polyreactivity
QVQLVESGGGLVQAGGSLRLSCAASGFIFRYYAMGWYRPAPGKERELVAAISASGGSTYYADSVKGRCTISRDNAKNSDYLLMNSLKPEDTAVYYCATYYQKYRSEYWGQGTQVTVSS | high polyreactivity
QVQLVESGGGLVQAGGSLRLSCAASGFIFRYYAMGWYRQAPGKERELVAAISASGVSTYYADSVKGRFTISRDNAKNTVYLQMNSLKPEDTAVYYCNKVTRGGYDYWGQGSQVTVSS | high polyreactivity
QVQLVESGGGLVQAGGSLRLSCAASGFIFRYYAMGWYRQAPGKERELVAAISSGGRTSYADSVKGRFTISRDNAKNTVYLQMNSLKPEDTAVYYCAADRWRGLFYYGKDYWGQGTQVTVSS | high polyreactivity
QVQLVESGGGLVQAGGSLRLSCAASGFIFRYYAMGWYRQAPGKERELVAAISWSGGSTNYADSVKGRFTISRDNAKNTVYLQMNSLKPEDTAVYYCATRYRRWSTVVQDDYWGQGTQVTVSS | low polyreactivity

Sequence | polyreactivity (PSR sort gate)
QVQLVESGGGLVQAGGSLRLSCAASGFIFRYYAMGWYRQAPGKERELVAAITKSGGRTFYADSVKGRFTISRDNAKNTVYLQMNSLKPEDTAVYYCAARANGRDDYWGQGTQVTVSS | high polyreactivity
QVQLVESGGGLVQAGGSLRLSCAASGFIFRYYAMGWYRQAPGKERELVARISSSGGRTYYADSVKGRFTISRDNAKNTVYLQMNSLKPEDTAVYYCNTADYHGRWAFAWYGDYWGQGTQVTVSS | high polyreactivity
QVQLVESGGGLVQAGGSLRLSCAASGFIFRYYAMGWYRQAPGKERELVASIDWSGGNTYYADSVKGRFTISRDNAKNTVYLQMNSLKPEDTAVYYCNRRGMDWGQVTQVTVSS | low polyreactivity
QVQLVESGGGLVQAGGSLRLSCAASGFIFRYYAMGWYRQAPGKERELVATISASGGRTYYADSVKGRFTISRDNAKNTVYLQMNSLKPEDTAVYYCAVRPYWLGTYAPVAFDYWGQGTQVTVSS | high polyreactivity
QVQLVESGGGLVQAGGSLRLSCAASGFIFRYYAMGWYRQAPGKERELVATISYRGASTYYADSVKGRFTISRDNAKNTVYLQMNSLKPEDTAVYYCAADWGWYWYIYDYWGQGTQVTVSS | low polyreactivity
QVQLVESGGGLVQAGGSLRLSCAASGFIFRYYAMGWYRQAPGKEREMVAAISRSGGSTYYADSVKGRFTISRDNANNTVYLQMKSLKPEDTAVYYCAALQSRSWYQFNYWGQGTQVTVSS | high polyreactivity
QVQLVESGGGLVQAGGSLRLSCAASGFIFSAYAMGWYRQAPGKERELVAAITKRGGTTYYADSVKGRFTISRDNAKNTVYLQMNSLKPEDTAVYYCATRQLSKVKDMDYWGQGTQVTVSS | high polyreactivity
QVQLVESGGGLVQAGGSLRLSCAASGFIFSEYAMGWYRQAPGKDMELVAAISSGGNTYYADSVKGRFTISRDNAKNTVYLQMNSLKTEDTAVYYCNADNYAFYTQRPLDGSATYDYWGQGTQVTVSS | low polyreactivity
QVQLVESGGGLVQAGGSLRLSCAASGFIFSGNAMGWYRQAPGKERELVAAISGRGGRTYYADSVKGRFTISRDNAKNTVYLQMNSLKPEDTAVYYCAADNPYLGRKFDYWGQGTQVTVSS | high polyreactivity
QVQLVESGGGLVQAGGSLRLSCAASGFIFSGNAMGWYRQAPGKERELVAAISSGGSTNYADSVKGRFTISRDNAKNTVYLQMNSLKPEDTAVYYCNADSPERIPVDLENDYWGQGTQVTVSS | low polyreactivity
QVQLVESGGGLVQAGGSLRLSCAASGFIFSGNAMGWYRQAPGKERELVAAITRGGITYYADSVKGRFTISRDNAKNTVYLQMNSLKPEDTAVYYCNALGFGSNYDYWGQGTQVTVSS | high polyreactivity
QVQLVESGGGLVQAGGSLRLSCAASGFIFSGYAMGWYRQAPGKERELVAAITRSGSRTYYADSVKGRFTISRDNAKNTVYLQMNSLKPEDTAVYYCAKDKPKYGISTMDYWGQGTQVTVSS | high polyreactivity
QVQLVESGGGLVQAGGSLRLSCAASGFIFSHNAMGWYRQAPGKERELVAAISDGGGRTYYADSVKGRFTISRDNAKNTVYLQMNSLKPEDTEVYYCAVLWPYYERYYYWGQGTQVTVSS | high polyreactivity
QVQLVESGGGLVQAGGSLRLSCAASGFIFSKNVMGWYRQATGKERELVALINRSGGTTYYADSVKGRFTISRDNAKNTVYLQMNSLKPEDTAVYYCAARRYGYTSITWYDYLGQGTQVTVSS | high polyreactivity
QVQLVESGGGLVQAGGSLRLSCAASGFIFSKYGMGWYRQAPGKERELVAAISIRGGNTYYADSVKGRFTISRDNAKNTVYLQMNSLKPEDTAVYYCNALSYGRYLNYRGGMDYWGQGTQVTVSS | high polyreactivity
QVQLVESGGGLVQAGGSLRLSCAASGFIFSLNAMGWYRQAPGKEREFVASITWSGTRTYYADSVKGRFTISRDNAKNTVYLQMNSLKPEDTAVYYCAARTKRSYEYQAFYYWGQGTQVTVSS | high polyreactivity
QVQLVESGGGLVQAGGSLRLSCAASGFIFSNNAMGWYRQAHGKERELVAAISKSGGGTSYADSVKGRFTISRDNAKNTVYFQMNSLKPEDSAVYYCAARFRQFRVDYWGQGTQVTVSS | high polyreactivity
QVQLVESGGGLVQAGGSLRLSCAASGFIFSNNAMGWYRQAPGKERELVAAITASGGRTYYADSVKGRFTISRDNAKNTVYLQMNSLKPEDTSVYYCAAALYDIMGYWGQGTQLTVSS | high polyreactivity
QVQLVESGGGLVQAGGSLRLSCAASGFIFSNNAMGWYRQAPGKERELVAAITSSGGRTYYADSVKGRFTISRDNAKNTVYLQMNSLKPEDTAVYYCAAVWRTSVWTKYGYWGQGTQVTVSS | high polyreactivity
QVQLVESGGGLVQAGGSLRLSCAASGFIFSPNAMGWYRQAPGKEREFVAAIRYSGTSTSYADSVKGRFTISRDNAKNTVYLQMNSLKPEDTAVYYCNAQWRFSRGYTYNYWGQGTQVTVSS | high polyreactivity
QVQLVESGGGLVQAGGSLRLSCAASGFIFSPYAMGWYRQAPGKERELVAAISSGGSTYYADSVKGRFTISRDNAKNTVYLQMNSLKPEDTAVYYCAASWGRRKPRMDYWGLGTQVTVSS | high polyreactivity
